Key:
[1] = biological target: 23 amino acid synthetic M2e peptide of A/Fort Worth/1/50 (influenza A virus H1N1 A/Fort Worth/1/50); assay: ELISA on 23mer M2e peptide coated at 1 µg/ml
SEQ ID NO 273 = assay: peptide ELISA, mAb 5 µg/mL
SEQ ID NO 307 = assay: peptide ELISA, mAb 5 µg/mL
SEQ ID NO 308 = assay: peptide ELISA, mAb 5 µg/mL

chimeric mouse V-region/human IgG1 kappa 14C2 antibody
EC50 [1]: 0.01 µg/mL

B1: 23K12 (TCN-031) (antibody, V domains shown)
VH: EVQLVESGGGLVQPGGSLRISCAASGFTVSSNYMSWVRQAPGKGLEWVSVIYSGGSTYYADSVKGRFSFSRDNSKNTVFLQMNSLRAEDTAVYYCARCLSRMRGYGLDVWGQGTTVTVS
VL: DIQMTQSPSSLSASVGDRVTITCRTSQSISSYLNWYQQKPGKAPKLLIYAASSLQSGVPSRFSGSGSGTDFTLTISGLQPEDFATYYCQQSYSMPAFGQGTKLEIK
ELISA A450 (SEQ ID NO 273): 0.22
ELISA A450 (SEQ ID NO 307): 0.58
ELISA A450 (SEQ ID NO 308): 0.62
